Data taken from patent publication US20200199241A1 (Chugai, published 2020).

B1: GpH7-B3 variant L235E/GpL16-k0 (antibody, human IgG1)
heavy: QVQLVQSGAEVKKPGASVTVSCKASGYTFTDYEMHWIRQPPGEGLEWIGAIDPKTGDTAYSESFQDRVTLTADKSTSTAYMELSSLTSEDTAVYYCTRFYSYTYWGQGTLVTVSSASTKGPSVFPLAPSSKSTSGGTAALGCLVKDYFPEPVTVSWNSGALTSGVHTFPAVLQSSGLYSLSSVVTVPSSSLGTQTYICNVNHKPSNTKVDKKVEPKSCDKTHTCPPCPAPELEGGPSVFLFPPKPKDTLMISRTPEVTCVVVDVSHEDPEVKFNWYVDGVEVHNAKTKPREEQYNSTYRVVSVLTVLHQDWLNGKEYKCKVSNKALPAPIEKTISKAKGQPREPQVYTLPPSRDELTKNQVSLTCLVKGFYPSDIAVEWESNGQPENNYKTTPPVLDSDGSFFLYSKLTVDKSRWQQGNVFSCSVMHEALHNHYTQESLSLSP
light: DIVMTQSPLSLPVTPGEPASISCQASESLVHSNRNTYLHWYLQKPGQSPQLLIYKVSNRFSGVPDRFSGSGSGTDFTLKISRVEAEDVGVYYCSQNTHVPPTFGQGTKVEIE
notes: copies: 2 + 2
B2: GpH7-B3 variant L235T/GpL16-k0 (antibody, human IgG1)
heavy: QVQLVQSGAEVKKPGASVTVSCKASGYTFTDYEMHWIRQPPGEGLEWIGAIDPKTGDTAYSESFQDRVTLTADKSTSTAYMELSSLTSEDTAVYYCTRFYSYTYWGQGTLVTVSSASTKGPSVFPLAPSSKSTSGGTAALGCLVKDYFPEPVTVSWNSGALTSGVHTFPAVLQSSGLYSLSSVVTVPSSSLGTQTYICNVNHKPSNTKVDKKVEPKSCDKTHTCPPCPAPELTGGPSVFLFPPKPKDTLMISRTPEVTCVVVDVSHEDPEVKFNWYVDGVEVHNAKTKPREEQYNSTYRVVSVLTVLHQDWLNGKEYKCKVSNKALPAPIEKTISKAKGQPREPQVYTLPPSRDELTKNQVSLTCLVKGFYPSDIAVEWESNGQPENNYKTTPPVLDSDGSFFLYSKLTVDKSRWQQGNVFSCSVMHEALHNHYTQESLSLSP
light: DIVMTQSPLSLPVTPGEPASISCQASESLVHSNRNTYLHWYLQKPGQSPQLLIYKVSNRFSGVPDRFSGSGSGTDFTLKISRVEAEDVGVYYCSQNTHVPPTFGQGTKVEIE
notes: copies: 2 + 2
B3: GpH7-B3 variant L235V/GpL16-k0 (antibody, human IgG1)
heavy: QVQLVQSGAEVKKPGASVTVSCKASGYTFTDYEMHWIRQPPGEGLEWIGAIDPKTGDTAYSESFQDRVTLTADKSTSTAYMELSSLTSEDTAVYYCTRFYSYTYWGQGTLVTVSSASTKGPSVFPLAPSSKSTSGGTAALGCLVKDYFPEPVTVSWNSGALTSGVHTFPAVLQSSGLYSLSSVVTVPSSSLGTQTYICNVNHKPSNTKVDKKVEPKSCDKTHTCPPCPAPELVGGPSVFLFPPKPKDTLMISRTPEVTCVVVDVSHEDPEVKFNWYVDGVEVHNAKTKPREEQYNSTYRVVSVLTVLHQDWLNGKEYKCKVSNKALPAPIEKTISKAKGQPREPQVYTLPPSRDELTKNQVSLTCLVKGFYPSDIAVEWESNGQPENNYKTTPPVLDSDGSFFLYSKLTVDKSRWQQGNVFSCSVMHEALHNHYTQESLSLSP
light: DIVMTQSPLSLPVTPGEPASISCQASESLVHSNRNTYLHWYLQKPGQSPQLLIYKVSNRFSGVPDRFSGSGSGTDFTLKISRVEAEDVGVYYCSQNTHVPPTFGQGTKVEIE
notes: copies: 2 + 2
B4: GpH7-B3 variant L235H/GpL16-k0 (antibody, human IgG1)
heavy: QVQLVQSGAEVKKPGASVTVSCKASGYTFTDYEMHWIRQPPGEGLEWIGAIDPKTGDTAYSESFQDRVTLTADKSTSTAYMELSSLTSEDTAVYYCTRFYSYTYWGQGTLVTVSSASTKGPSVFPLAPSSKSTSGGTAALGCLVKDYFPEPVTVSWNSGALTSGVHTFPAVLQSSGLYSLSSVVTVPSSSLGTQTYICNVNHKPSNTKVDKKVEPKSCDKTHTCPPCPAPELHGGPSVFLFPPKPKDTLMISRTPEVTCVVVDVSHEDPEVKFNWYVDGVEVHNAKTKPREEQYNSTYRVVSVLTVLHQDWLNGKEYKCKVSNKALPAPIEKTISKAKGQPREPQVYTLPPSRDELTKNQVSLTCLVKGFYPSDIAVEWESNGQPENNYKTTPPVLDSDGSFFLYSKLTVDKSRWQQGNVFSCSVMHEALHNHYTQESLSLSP
light: DIVMTQSPLSLPVTPGEPASISCQASESLVHSNRNTYLHWYLQKPGQSPQLLIYKVSNRFSGVPDRFSGSGSGTDFTLKISRVEAEDVGVYYCSQNTHVPPTFGQGTKVEIE
notes: copies: 2 + 2
B5: GpH7-B3 variant L235Q/GpL16-k0 (antibody, human IgG1)
heavy: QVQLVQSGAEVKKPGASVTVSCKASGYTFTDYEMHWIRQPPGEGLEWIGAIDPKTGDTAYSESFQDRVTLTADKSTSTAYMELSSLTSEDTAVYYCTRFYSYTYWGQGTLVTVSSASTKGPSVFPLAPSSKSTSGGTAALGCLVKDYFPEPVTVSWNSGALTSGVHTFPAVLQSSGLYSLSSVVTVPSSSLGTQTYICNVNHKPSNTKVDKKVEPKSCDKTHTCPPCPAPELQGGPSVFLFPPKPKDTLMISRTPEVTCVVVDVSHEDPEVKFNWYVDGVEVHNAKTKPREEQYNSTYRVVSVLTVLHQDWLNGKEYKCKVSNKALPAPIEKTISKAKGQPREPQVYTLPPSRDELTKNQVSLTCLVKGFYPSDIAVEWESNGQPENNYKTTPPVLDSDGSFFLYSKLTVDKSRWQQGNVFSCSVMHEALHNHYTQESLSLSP
light: DIVMTQSPLSLPVTPGEPASISCQASESLVHSNRNTYLHWYLQKPGQSPQLLIYKVSNRFSGVPDRFSGSGSGTDFTLKISRVEAEDVGVYYCSQNTHVPPTFGQGTKVEIE
notes: copies: 2 + 2
B6: GpH7-B3 variant L235K/GpL16-k0 (antibody, human IgG1)
heavy: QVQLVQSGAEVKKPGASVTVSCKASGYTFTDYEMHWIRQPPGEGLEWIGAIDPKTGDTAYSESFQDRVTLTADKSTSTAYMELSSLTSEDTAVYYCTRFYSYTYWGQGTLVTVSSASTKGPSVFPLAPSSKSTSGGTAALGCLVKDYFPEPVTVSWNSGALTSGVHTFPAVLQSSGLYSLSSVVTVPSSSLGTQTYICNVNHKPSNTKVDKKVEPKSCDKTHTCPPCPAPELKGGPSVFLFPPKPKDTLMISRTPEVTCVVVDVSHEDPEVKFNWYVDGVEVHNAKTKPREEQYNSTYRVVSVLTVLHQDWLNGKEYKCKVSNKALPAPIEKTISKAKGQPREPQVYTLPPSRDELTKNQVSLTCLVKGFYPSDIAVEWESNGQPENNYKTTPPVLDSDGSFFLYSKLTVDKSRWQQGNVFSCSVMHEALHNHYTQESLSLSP
light: DIVMTQSPLSLPVTPGEPASISCQASESLVHSNRNTYLHWYLQKPGQSPQLLIYKVSNRFSGVPDRFSGSGSGTDFTLKISRVEAEDVGVYYCSQNTHVPPTFGQGTKVEIE
notes: copies: 2 + 2
B7: GpH7-B3 variant P238A/GpL16-k0 (antibody, human IgG1)
heavy: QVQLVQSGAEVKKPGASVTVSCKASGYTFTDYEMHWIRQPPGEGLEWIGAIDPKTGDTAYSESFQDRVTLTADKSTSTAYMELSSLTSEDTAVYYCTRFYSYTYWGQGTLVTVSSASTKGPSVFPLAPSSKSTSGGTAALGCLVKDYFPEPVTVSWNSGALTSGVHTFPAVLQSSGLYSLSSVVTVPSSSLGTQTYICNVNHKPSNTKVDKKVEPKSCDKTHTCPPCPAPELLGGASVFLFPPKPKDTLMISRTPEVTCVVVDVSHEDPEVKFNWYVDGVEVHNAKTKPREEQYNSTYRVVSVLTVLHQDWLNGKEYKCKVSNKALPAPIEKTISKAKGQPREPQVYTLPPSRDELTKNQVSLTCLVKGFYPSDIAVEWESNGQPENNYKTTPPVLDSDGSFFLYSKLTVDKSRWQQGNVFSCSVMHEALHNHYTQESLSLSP
light: DIVMTQSPLSLPVTPGEPASISCQASESLVHSNRNTYLHWYLQKPGQSPQLLIYKVSNRFSGVPDRFSGSGSGTDFTLKISRVEAEDVGVYYCSQNTHVPPTFGQGTKVEIE
notes: copies: 2 + 2
B8: GpH7-B3 variant L235I/GpL16-k0 (antibody, human IgG1)
heavy: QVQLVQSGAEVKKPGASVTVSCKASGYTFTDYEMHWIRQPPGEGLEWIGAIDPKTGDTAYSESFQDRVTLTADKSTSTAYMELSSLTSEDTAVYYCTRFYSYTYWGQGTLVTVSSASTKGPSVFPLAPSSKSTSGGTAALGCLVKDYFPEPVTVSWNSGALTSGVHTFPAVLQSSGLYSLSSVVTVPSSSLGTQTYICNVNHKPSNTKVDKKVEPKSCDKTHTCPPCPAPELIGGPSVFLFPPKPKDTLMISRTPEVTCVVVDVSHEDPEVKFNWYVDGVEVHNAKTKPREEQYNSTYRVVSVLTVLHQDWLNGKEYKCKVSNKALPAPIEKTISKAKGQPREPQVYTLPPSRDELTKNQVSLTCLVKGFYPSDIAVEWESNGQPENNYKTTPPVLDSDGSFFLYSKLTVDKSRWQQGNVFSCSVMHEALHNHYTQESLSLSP
light: DIVMTQSPLSLPVTPGEPASISCQASESLVHSNRNTYLHWYLQKPGQSPQLLIYKVSNRFSGVPDRFSGSGSGTDFTLKISRVEAEDVGVYYCSQNTHVPPTFGQGTKVEIE
notes: copies: 2 + 2
B9: GpH7-B3 variant L235M/GpL16-k0 (antibody, human IgG1)
heavy: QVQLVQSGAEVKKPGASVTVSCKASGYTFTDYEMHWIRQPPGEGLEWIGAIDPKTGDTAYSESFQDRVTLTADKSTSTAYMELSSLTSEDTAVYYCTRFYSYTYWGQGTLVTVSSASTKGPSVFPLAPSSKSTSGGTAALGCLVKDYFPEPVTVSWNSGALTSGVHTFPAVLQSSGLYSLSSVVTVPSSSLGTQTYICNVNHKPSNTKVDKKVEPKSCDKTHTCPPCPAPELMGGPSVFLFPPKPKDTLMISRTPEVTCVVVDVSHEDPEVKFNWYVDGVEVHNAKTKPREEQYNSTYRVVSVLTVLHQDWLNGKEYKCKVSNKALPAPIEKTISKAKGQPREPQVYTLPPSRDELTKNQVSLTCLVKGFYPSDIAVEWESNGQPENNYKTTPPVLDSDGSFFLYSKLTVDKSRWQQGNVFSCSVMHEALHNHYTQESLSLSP
light: DIVMTQSPLSLPVTPGEPASISCQASESLVHSNRNTYLHWYLQKPGQSPQLLIYKVSNRFSGVPDRFSGSGSGTDFTLKISRVEAEDVGVYYCSQNTHVPPTFGQGTKVEIE
notes: copies: 2 + 2

Key:
Experiment in all cases: SPR (Biacore);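 also: antibody variants captured on sensor chip, Fcγ receptor flowed over at 25 °C, bound receptor normalized to amount of captured antibody, expressed relative to reference antibody set as 100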
human FcγRIa = molecular target: T1, human FcγRIa (human, UniProt P12314 16-292, limits assumed)
T1 construct: also called FcgRIa; FcγRI (CD64)
Description: (§1) Interaction between each modified antibody and Fcγ receptor prepared in the manner described above was analyzed using the BIACORE™ T100 surface plasmon resonance system (GE Healthcare), BIACORE™ T200 surface plasmon resonance system (GE Healthcare), BIACORE™ A100 surface plasmon resonance system or BIACORE™ 4000 surface plasmon resonance system. HBS-EP+ (GE Healthcare) was used for the running buffer, and measurements were carried out at 25° C. The chips used were chips in which antigen peptides, Protein A (Thermo Scientific), Protein A/G (Thermo Scientific) or Protein L (ACTIGEN® protein (Alltech or BioVision) were immobilized on the Series S Sensor Chip CMS (GE Healthcare) or Series S Sensor Chip CM4 (GE Healthcare) by amine coupling, or chips in which preliminarily biotinylated antigen peptides were allowed to interact and then immobilized on the Series S Sensor Chip SA (certified) (GE Healthcare). The target antibodies were captured on these sensor chips, Fcγ receptor diluted with the running buffer was allowed to interact, followed by measurement of the amount of bound antibody. The amounts bound were compared between antibodies. However, since the amount of Fcγ receptor bound depends on the amount of captured antibody, the values used for comparison were first corrected by dividing the amount of Fcγ receptor bound by the captured amount of each antibody. Through reaction with 10 mM glycine-HCl at pH 1.5, the sensor chips were regenerated by washing off antibody captured on the sensor chips and used repeatedly.
(§2) Binding strength was evaluated according to the following method based on the results of analyzing the interaction with each FcγR. […] That value was then further multiplied by 100, and the resulting value was used as an indicator of relative binding activity to each FcγR.

human FcγRIIa(R) = molecular target: T2, human FcγRIIa(R) (human, UniProt P12318 36-217)
T2 construct: also called FcgRIIaR; FcγRIIa type R
T2 chain: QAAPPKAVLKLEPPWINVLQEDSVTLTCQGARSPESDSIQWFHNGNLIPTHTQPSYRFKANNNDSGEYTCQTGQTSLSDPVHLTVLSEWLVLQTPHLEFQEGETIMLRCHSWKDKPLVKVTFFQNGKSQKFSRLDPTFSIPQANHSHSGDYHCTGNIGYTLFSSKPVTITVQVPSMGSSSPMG
Description: as §1, §2

human FcγRIIa(H) = molecular target: T3, human FcγRIIa(H) (human, UniProt P12318 36-217)
T3 construct: also called FcgRIIaH; FcγRIIa type H
T3 sequence: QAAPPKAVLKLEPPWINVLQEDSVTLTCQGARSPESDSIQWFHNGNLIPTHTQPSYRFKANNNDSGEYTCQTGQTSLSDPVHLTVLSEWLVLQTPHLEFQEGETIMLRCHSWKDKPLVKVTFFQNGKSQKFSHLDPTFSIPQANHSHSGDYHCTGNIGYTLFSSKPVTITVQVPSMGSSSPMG
Description: as §1, §2

human FcγRIIb = molecular target: T4, human FcγRIIb (human, UniProt P31994 43-217, limits assumed)
T4 construct: also called FcgRIIb
T4 sequence: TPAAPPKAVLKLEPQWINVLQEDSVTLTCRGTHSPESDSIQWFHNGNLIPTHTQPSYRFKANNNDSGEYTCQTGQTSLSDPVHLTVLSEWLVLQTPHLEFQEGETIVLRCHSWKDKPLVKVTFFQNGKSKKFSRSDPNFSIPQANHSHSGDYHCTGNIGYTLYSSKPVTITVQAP
Description: as §1, §2

human FcγRIIIa(F) = molecular target: T5, human FcγRIIIa(F) (human, UniProt P08637 17-208, limits assumed)
T5 construct: also called FcgRIIIaF; allotype F158
T5 sequence (P08637 other isoform, or with tags, fused parts or gaps limits assumed): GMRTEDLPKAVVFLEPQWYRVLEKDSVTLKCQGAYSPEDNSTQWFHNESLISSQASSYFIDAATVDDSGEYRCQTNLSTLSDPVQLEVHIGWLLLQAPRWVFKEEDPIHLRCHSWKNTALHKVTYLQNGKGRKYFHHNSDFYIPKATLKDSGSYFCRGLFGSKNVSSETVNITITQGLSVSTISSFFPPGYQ
Description: as §1, §2

T1 sequence (P12314 16-292 limits assumed): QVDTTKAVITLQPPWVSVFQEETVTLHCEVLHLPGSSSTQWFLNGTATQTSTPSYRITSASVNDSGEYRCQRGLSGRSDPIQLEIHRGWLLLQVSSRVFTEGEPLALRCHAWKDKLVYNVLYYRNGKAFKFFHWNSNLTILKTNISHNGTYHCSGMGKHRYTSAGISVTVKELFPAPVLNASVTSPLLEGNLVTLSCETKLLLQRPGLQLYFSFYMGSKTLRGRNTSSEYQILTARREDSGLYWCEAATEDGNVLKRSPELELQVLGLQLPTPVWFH

Row | Binder | relative binding activity (human FcγRIa) | relative binding activity (human FcγRIIa(R)) | relative binding activity (human FcγRIIa(H)) | relative binding activity (human FcγRIIb) | relative binding activity (human FcγRIIIa(F))
1 | B1 | 15 % of GpH7-B3/GpL16-k0 | 72 % of GpH7-B3/GpL16-k0 | 52 % of GpH7-B3/GpL16-k0 | 64 % of GpH7-B3/GpL16-k0 | 56 % of GpH7-B3/GpL16-k0
2 | B2 | 8 % of GpH7-B3/GpL16-k0 | 28 % of GpH7-B3/GpL16-k0 | 47 % of GpH7-B3/GpL16-k0 | 26 % of GpH7-B3/GpL16-k0 | 48 % of GpH7-B3/GpL16-k0
3 | B3 | 69 % of GpH7-B3/GpL16-k0 | 50 % of GpH7-B3/GpL16-k0 | 68 % of GpH7-B3/GpL16-k0 | 47 % of GpH7-B3/GpL16-k0 | 77 % of GpH7-B3/GpL16-k0
4 | B4 | 2 % of GpH7-B3/GpL16-k0 | 91 % of GpH7-B3/GpL16-k0 | 88 % of GpH7-B3/GpL16-k0 | 66 % of GpH7-B3/GpL16-k0 | 28 % of GpH7-B3/GpL16-k0
5 | B5 | 29 % of GpH7-B3/GpL16-k0 | 28 % of GpH7-B3/GpL16-k0 | 34 % of GpH7-B3/GpL16-k0 | 20 % of GpH7-B3/GpL16-k0 | 35 % of GpH7-B3/GpL16-k0
6 | B6 | -1 % of GpH7-B3/GpL16-k0 | -5 % of GpH7-B3/GpL16-k0 | 0 % of GpH7-B3/GpL16-k0 | -3 % of GpH7-B3/GpL16-k0 | 6 % of GpH7-B3/GpL16-k0
7 | B7 | 95 % of GpH7-B3/GpL16-k0 | 38 % of GpH7-B3/GpL16-k0 | 15 % of GpH7-B3/GpL16-k0 | 26 % of GpH7-B3/GpL16-k0 | 5 % of GpH7-B3/GpL16-k0
8 | B8 | 93 % of GpH7-B3/GpL16-k0 | 81 % of GpH7-B3/GpL16-k0 | 89 % of GpH7-B3/GpL16-k0 | 88 % of GpH7-B3/GpL16-k0 | 85 % of GpH7-B3/GpL16-k0
9 | B9 | 93 % of GpH7-B3/GpL16-k0 | 72 % of GpH7-B3/GpL16-k0 | 72 % of GpH7-B3/GpL16-k0 | 63 % of GpH7-B3/GpL16-k0 | 42 % of GpH7-B3/GpL16-k0
